Results: the DeepSol protein solubility set

Test: soluble on expression in E. coli; label from the status in PepcDB or PDB records

Sequence	soluble on expression in E. coli
MVFDRQMKRGQRDWAVRQPDFKAAQYLKEEIGWRVADKVFDLTKFNPLVLDIGCGVGHIAPHLIKENVGKIIQVDMSGGMAQSSAKCEDPEVIVERRTVDEETLDGFHENQFDLLLTSMSAHWINHLPQWMRKCHDIVKPDCPFIGSMLAEDTLYELRCSLQLAELERIGGVSSHISPFVKTQDIGGLLSSAGFDMITLDSDEIQVGYPNMFALMYDLQLMGESHCTHRRNPTIRRDVLVAAEAIYQSMYSSDGKYPATFKIVSFIGWKPGPNMPKAAKRGSQTVSLKDIGKIVEDPEMMRKMSEKDGVDKKK	not soluble
MSLTPMFKTPVVMTIAGSDSGGGAGIAADIKTFAAFGVHGTCAITSVTAQNTTGVLETFDLAPEAVASQIEAVCTDMDVKWAKTGMLASSEIIKEVAKQVKKHNLSLVLDPVMAAEAGGDLLKKEALSVLIKELLPLCKVTTPNASEAGALAGVTVKTHEDAKLAARKIADLGVESVIVTGGHIDATDLLYEPVSGTFTRIPGTFVKGGTHGSGCTYSASMAACLARGDSTETAARKAKTFVEQAILRSVPVGKGVGPVNPLANTLEEKERYLALQDVKEAVSILTYSPDFAKLIPEVGCNIGMAIPCARTYNEIAAVEGRIIRFREKAIPVGYVNFGASQHVARVILAALRENPEMRAAMNVKYSEEILEACREINPGISSFDRAEDPGDASTMEWGTSEAIRKYGGMPEVIYDKGAIGKEPMVRLLGKSASEVAKLAVELARRVKEGHHHHHH	soluble
MGSDKIHHHHHHMKIDTLGVQAFVAIADGGSFRQAADTLHVTQTAITQRLRKLESFLGVALVERTTRRTTLTEIGRRFLPQARRLLNELSDALTEIRETGLSQRGDVTIACVPTVGVQYLPRILRAFSGHRPHDRVKILDHASASVLQAVLRREAEFGISIAGDQHPELVSVPLTHDPYVLVCRDDHPLAKRRRIRWAALQPHPLIFAGEVSGNRGLLDGALKTSGVSLHSFYEVQRSSTALGLVAEGLGAAVVPKLAVQKNAYPMIRTIELVEPSVSRTLVLVKRKAAQLSPAAQALYDMIVERATPGR	not soluble
MSLKNLTIKENQPAIYITNLGKYTEGEHMGQWLNVPATKEQFNVVLKNIGVDGVQYEEYFLTDWENIGGISQFSNIERVNNMAKIQIAINEKLYNFFGADQEITYFNDDKYKVMEILNDYAKEQADELTTDEIIENIESMRIFAQDQYNSCIVNFANYLIDELEFINFKAIEKIDQKVVNYFDFEKFGHDKLIELNANSDVIIGTYEVGKLNDTIIIVTLFEGHHHHHH	soluble
MDLFTRKDGTSIHYSTLGEGYPIVLIHTVLDNYSVFNKLAAELAKSFQVVLIDLRGHGYSDKPRHIEIKDFSDDIVELLKYLYIEEVAFVCHEMGGIIGADISVRYPEFTSSLTLVNPTSIEGELPEERLFRKYAHIIRNWDPEKQDKFLNKRKYYRPRKMNRFLKHVVDTNEISTKEEIQAVKEVFKNADISQTYRNVVVPTKIIAGEFGERTTRLEAKEVADLIQNADFEVYQESSAFPFVEEQERFVEDTAAFINKHHDEKHV	not soluble
MGQKRMNKSNKLVIINRAIPGGGKTSLIKQIEELAKSLGHSISVHSTDEYFIQTDEEGIRHYVVDKKKLNEYHQNNQEAFKQALENRIDIVVCDNTNFESWQSKPYTDMAREFGYKILLIDFKNRHLETPMDYGWDVAQCIKKPRGIAKHYDYDFYLERVLVEPQDYEKQNRELSLKALEFLKYNFDFDVIFYSFGEQLMPILTRMLVSVSKSHRKRLENYGKDIKTLEHHHHHHLEHHHHHHLEHHHHHHLEHHHHHHLEHHHHHHLEHHHHHHLEHHHHHH	not soluble
MRGSHHHHHHGSDLGRKLLEAARAGQDDEVRILMANGADVNAADNTGTTPLHLAAYSGHLEIVEVLLKHGADVDASDVFGYTPLHLAAYWGHLEIVEVLLKNGADVNAMDSDGMTPLHLAAKWGYLEIVEVLLKHGADVNAQDKFGKTAFDISIDNGNEDLAEILQKLN	soluble
MGNYLNPDNSKFQRAVNSDIYVDKTGLIKYTNRVINTMQAYVCVSRPRRFGKSMAADMLTAYYSRGCDSRELFAGLEIAKDENFGGYLNKYDTVFLNVQEFLSRSSDVKELIARIKQRVIRELTRQYPDVELFDSTDLAETMQDIYAESKCPFVLIIDEWDCIFREFKNDKEAQEKYLDFLRDLIKDKSYIHLAYMTGILPIKKYGTHSALNMFDEFSMIDPGPLASYVGFTESEVEKLCGEYQMDIDEIRNWYDGYSFEEVPSVYSPKSVISCMRLGRLGNYWNQTETFEALQLYIDMNFEGLRDDILSMLAGEEVPVNTGSFTNDMATFRTEDDVLTLLIHLGYLGYRYATKTVFIPNGEIRAEFVNAVSVSDWGEVSNALKNSADTLQAIWQGREKQVAEGIRQAHFETSHIQYNDENALSYTISLALYAARNFYTVHRELSGGKGFADLVFIPRKRFMDKPALVVELKWDKDVAGAITQIREKEYCRSLEEYHGKLLLVGINYDKKTKEHSCKIEEYRK	not soluble
MGSDKIHHHHHHMSILTVSNLSHGFGDRAIFEDVSFRLLKGEHIGLVGANGEGKSTFMNIITSQLEPDEGKVEWAKHVRVGYLDQHAVLSKGLTIRDALKGAFQYLFDIEQEINDLYTKMGEVEPDELEKMLEEVGVLQDILTNNDFYTIDAKVEEIARGLGLDEIGLDRDVQELSGGQRTKILLAKLLLEKPDILLLDEPTNYLDVQHIEWLKRYLNDYENAFILISHDIPFLNSVINLIYHMENQGLNRYVGDYDNFLTVHEAKKKQHESAFKRQQQEISELKDFVARNKARVSTRNMAMSRQKKLDKMDVIELAQERPKPEFHFQTARTPSKLMFEAKGLVIGYDEPLSRPLDLMIERGQKIALHGANGIGKSTLLKSLLGEIPSVSGTVERGENLHIGYFEQEIKEKNSNTCIEEIWGTFPSLTQQQVRAMLAKCGLMTKHIESKIEVLSGGEKAKVRLCKLMNTESNILVLDEPTNHLDVEAKEELKRALQEYKGTVLLISHEPEFYEAVATDLWNCESWTTKVF	not soluble
MGSDKIHHHHHHMDMNQGGLISLSPHAQVLLRPEGIQFGLDSANAGIFAAPESLIVAIVQVLRGFWQPIAKTTAIEQLTEAGLQPVAARGLIDDLLHHRVLSIVERNLTVAVGGFGPLVAPIKAVLGCAGISVVQAHTIQRCMTLESLLSREVPLIWINSTPSFSHIAQELVEVKTMIPVGLMDNHAIIGPVRIDGRGPCGLCTDLYRSDADPQWPALLKNATAPLTAPAALTYATAARVTRLVEQLSEPRQRVTVTAGLVIRVSSDGELSSEIMSPHSRCPLCWSSRWDCDPLTGTEQAFLADLGQNVLL	not soluble
MDTTEFDEIRPYNDEELPQIFEELIADPAFQKAATDAIPNVPFELLAQKIRACKSKLDFQETFCYGILWKIAADHTDGLTLDHTAVPDKSKAYTYVSNHRDIILDSGFLSILLIDQGMDTVEIAIGDNLLVYPWIKKLVRVNKSFIVQRALTMRQMLESSARMSRYMHYTINEKNQSIWIAQREGRAKDSNDRTQDSVLKMLAMGGEGDLIDRLMEMNIAPLAISYEYDPCDFLKAQEFQLKRDIEGYKKTTQDDLISMQTGLFGYKGKVHFQTAPCINDRLAQLDRSLPKQELFSSISACIDQRIHSNYRIYSGNYVAYDLLKGTSEFAGHYTPEEKQRFVTYIEQQLGKIKIPNKDEDFLRGKLLLMYANPLVNYLAACQ	not soluble
MSKIELKQLSFAYDNQEALLFDQANITMDTNWKLGLIGRNGRGKTTLLRLLQKQLDYQGEILHQVDFVYFPQTVAEEQQLTYYVLQEVTSFEQWKLERELTLLNVDPEVLWRPFSSLSGGEKTKVLLGLLFIEENAFPLIDEPTNHLDLAGRQQVAEYLKKKKHGFILVSHDRAFVDEVVDHILAIEKSQLTLYQGNFSIYEEQKKLRDAFELAENEKIKKEVNRLKETARKKAEWSMNREGDKYGNAKEKGSGAIFDTGAIGARAARVMKRSKHIQQRAETQLAEKEKLLKDLEYIDSLSMDYQPTHHKTLLTVEELRLGYEKNWLFAPISFSINAGEIVGITGKNGSGKSSLIQYLLDNFSGDSEGEATLAHQLTISYVRQDYEDNQGTLSEFAEKNQLDYTQFLNNLRKLGMERAVFTNRIEQMSMGQRKKVEVAKSLSQSAELYIWDEPLNYLDVFNHQQLEALILSVKPAMLVIEHDAHFMKKITDKKIVLKS	not soluble
MSLQTSDQYSIQEVVDAGHGFFGETTGGLAKVVERAFQQYGLPNGYILGQEGSGAFVAGLTYGEGTLYTKNAGQHPVFWQGPSLGLDYGGQGTRAMMLVYNLPSVDALYRRYGGVSGSAFIVAGVGMTYLKSSDVTLAPIRTGIGARLGINVGYLKLTQQPTWNPFEGHHHHHH	soluble
MSLRNDAYSTLRVSSEHGVARIILDNPPVNVIGATMMRELRTVLTTLADDSSVRVIVFSSADPEFFLAHVDMRIGEKMDALQELAASAPADVNVFQAVGELIRHQPQVTIVKLAGKARGGGAEFVAAADMAFAAAETAGLGQIEALMGIIPGGGGTQYLRGRVGRNRALEVVLTADLFDAETAASYGWINRALPADELDEYVDRVARNIAALPDGVIEAAKRSLPADDLKEGLLGENDAWAATFSLPAAQQLISGGLKDGAQTPAGERDLEGLMRSVAREGHHHHHH	soluble
MFKRLSRFLLPLVWIFTATTALADDTQINTMDPYSMVKSVANKTFDRFHKDKALIDADADHLKVIVREELMPYIDYKYASYKVLGQYLKESTEDQRNRFVDAFQGYLVTTYAQAFTEYTNQKVEFSPGSDFSNEKIVDVNVQIIEAGRPPIKLLFKARRLKDDSWKAFDLVAEGVSLLSSKQSEISNLIRQQGIEPVIKMLEERTKDKVTKQPKAGKLEHHHHHH	soluble
MAHTSRHNEFSIGASASLWECMLNQWLGRLYQNQDAHTGLQFEARIAQRQSLVKQLHERQLDLLITTEAPKMDEFSSQLLGYFTLALYTSAPSKLKGDLNYLRLEWGPDFQQHEAGLIGADEVPILTTSSAELAQQQIAMLNGCTWLPVSWARKKGGLHTVVDSTTLSRPLYAIWLQNSDKNALIRDLLKINVLDEVY	not soluble
GAGTQTAQTQALDSDGIPTGGEWITMFDGKTLNGWRGYCRQDVPLGWVVEDGSITYKGSDNKADTGFGDLIYDKKFKNFVFEIEWKIDKAGNSGIFYTAQEIEGTPIYYSSPEYQLLDNENMPDAWEGCDGNRQAGAVYDMIMPDPQPVKPYGNWNKTRIVVYNQRVIHYMNDVKILEFQFGTPVWRALVDHSKFSKFSTSPEKCPEAYDLMLQCGKQPGYIGMQDHGYGVCFRNIRIKEL	soluble
MSEVNKKVQDGVDDYLEEEDFGQLLEAFDKSREEATTEGVIVEIKNDEVYVDIGKKSEGILALSEIQGDNSKLLFNVGDSIKVAVMGSRGGRSLLSHKKALRKEKVIEFIKNYQENQDDIFTVKVVGKNKGGLIVVDENDVEFFLPKSQYGFKETNNIIGKTFKVKIIKIDKDEQSIIVSRKKTLDDERRKRKELINNVAQQEDLIEGIVKKITTYGMFVDVGGVDGLVHYSEISYKGPVNPGTLYKEGDKVPVKVIKYDKERKHLSLSIKAALPDPWSEIKDTLDIGDTIKVIVSNIEPYGAFVDLGNDIEGFLHISEISWDKNIKNPKDYINKGQEIDVEVIEINPNERRLRVSLRNLLSRPFDEFMKSYKIADVVEGEITSVTSFGAFVKLGGIEGLLHNEDASWDRNDKCKDKFSQGDKIKVKIIKIDEENQKISLSTKELSSSPVQEYAKIHKVGDIVKGAIRDIKDFGVFVELSKNVDALIHKEDISTSMLENLKIGDDIEAAIVFIDEKKNRIRLSVKNLVRIKEREVLNEINNDDKVTLGDIIKDQLALEHHHHHH	soluble
